The values that follow are results of earlier work, collected in article PMC8179794.

Where two headings read alike, the source gives them in different places.

Some targets named below: IL-15Rα (Homo sapiens) (UniProt Q13261); IL-9R (Homo sapiens) (UniProt Q01113); IL-21R (Homo sapiens) (UniProt Q9HBE5); IL-2Rα (Homo sapiens) (UniProt P01589).
For data set [1], the target named is IL-2Rβ (Homo sapiens) (UniProt P14784).
Data set [2] shares this target. This is another data set of the same source.

UniProt P14784, sequence (P14784 27-240): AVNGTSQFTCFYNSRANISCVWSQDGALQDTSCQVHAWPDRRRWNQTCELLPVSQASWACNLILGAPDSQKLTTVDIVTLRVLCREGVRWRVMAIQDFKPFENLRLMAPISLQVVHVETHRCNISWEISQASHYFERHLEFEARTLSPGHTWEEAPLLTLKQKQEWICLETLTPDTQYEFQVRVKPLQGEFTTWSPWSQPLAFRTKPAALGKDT
UniProt Q9HBE5, sequence (Q9HBE5 20-232): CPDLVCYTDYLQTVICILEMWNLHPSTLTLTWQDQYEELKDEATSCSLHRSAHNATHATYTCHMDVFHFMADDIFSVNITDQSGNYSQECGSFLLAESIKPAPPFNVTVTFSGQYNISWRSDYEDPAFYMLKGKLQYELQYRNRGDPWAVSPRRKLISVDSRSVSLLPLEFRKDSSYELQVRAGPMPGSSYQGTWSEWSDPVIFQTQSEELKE
UniProt Q01113, sequence (Q01113 41-270): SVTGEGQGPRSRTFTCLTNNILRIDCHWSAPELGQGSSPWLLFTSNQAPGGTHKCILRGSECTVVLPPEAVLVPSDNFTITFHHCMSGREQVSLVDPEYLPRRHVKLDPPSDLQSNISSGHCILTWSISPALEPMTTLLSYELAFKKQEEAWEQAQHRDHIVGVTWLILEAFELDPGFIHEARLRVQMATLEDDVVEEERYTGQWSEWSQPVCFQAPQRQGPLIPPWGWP
UniProt Q13261, sequence (Q13261 31-205): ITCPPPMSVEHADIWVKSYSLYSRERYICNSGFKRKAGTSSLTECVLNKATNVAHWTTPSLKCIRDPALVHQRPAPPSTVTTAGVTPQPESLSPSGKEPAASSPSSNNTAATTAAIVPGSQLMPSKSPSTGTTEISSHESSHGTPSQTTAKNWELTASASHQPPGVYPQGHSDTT
UniProt P01589, sequence (P01589 22-240): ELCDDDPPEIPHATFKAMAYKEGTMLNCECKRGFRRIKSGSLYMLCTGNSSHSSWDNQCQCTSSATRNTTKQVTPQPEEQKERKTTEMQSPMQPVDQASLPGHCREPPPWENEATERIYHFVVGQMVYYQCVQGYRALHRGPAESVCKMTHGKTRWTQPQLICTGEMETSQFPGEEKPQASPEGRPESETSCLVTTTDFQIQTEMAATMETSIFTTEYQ

What is called Kd is the free concentration of one partner at which half of the binding sites on the other are occupied at equilibrium, for simple one-to-one binding. IL-15 (from UniProt P40933): the figures for the Kd with IL-15Rα (Homo sapiens) and with IL-2Rβ (Homo sapiens) [1] were 0.065 nM and 438 nM, respectively. Turning to IL-9 (from UniProt P15248), the Kd with IL-9R (Homo sapiens) is 0.1 nM. In the case of IL-21 (from UniProt Q9HBE4), the Kd in the data set with IL-21R (Homo sapiens) is 0.07 nM.

Regarding IL-2 (from UniProt P60568), the Kd with IL-2Rα (Homo sapiens) was 10 nM; with IL-2Rβ (Homo sapiens) [2] it was 144 nM.
